Our source for the abundance fitness values is the Human Domainome abundance scans (Beltran et al. 2025).

± gives the uncertainty stated by the source.

Sequences and labels used below:
B1: SH3 and PX domain-containing protein 2B, residues 155 to 209; numbered along this chain, A1X283 (parent)
chain: EQYVVVANYQKQESSEISLSVGQVVDIIEKNESGWWFVSTAEEQGWVPATCLEGQ

In this data set the parent is B1. In words: abundance fitness (aPCA) (normalised: wild type 0, dead -1); higher = more abundant; growth selection in yeast, the domain comes from the species named. Particulars: Homo sapiens.
On to EQYVVVANYQKQGSSEISLSVGQVVDIIEKNESGWWFVSTAEEQGWVPATCLEGQ [E13G], for which the abundance fitness was -0.074 ± 0.065.

For the variant EQYVVVANYQKQMSSEISLSVGQVVDIIEKNESGWWFVSTAEEQGWVPATCLEGQ [E13M], the abundance fitness is -0.025 ± 0.12.

For EQYVVVANYQKQSSSEISLSVGQVVDIIEKNESGWWFVSTAEEQGWVPATCLEGQ [E13S], the abundance fitness was -0.158 ± 0.078.

As for EQYVVVANYQKQHSSEISLSVGQVVDIIEKNESGWWFVSTAEEQGWVPATCLEGQ [E13H], the abundance fitness was -0.154 ± 0.11.

As to EQYVVVANYQKQYSSEISLSVGQVVDIIEKNESGWWFVSTAEEQGWVPATCLEGQ [E13Y], the abundance fitness was -0.248 ± 0.11.

EQYVVVANYQKQISSEISLSVGQVVDIIEKNESGWWFVSTAEEQGWVPATCLEGQ [E13I]: the abundance fitness is -0.037 ± 0.12.

As for EQYVVVANYQKQPSSEISLSVGQVVDIIEKNESGWWFVSTAEEQGWVPATCLEGQ [E13P], the abundance fitness is -0.598 ± 0.12.

With EQYVVVANYQKQCSSEISLSVGQVVDIIEKNESGWWFVSTAEEQGWVPATCLEGQ [E13C], the abundance fitness was -0.19 ± 0.1.

EQYVVVANYQKQASSEISLSVGQVVDIIEKNESGWWFVSTAEEQGWVPATCLEGQ [E13A]: the abundance fitness was -0.359 ± 0.1.

As to EQYVVVANYQKQVSSEISLSVGQVVDIIEKNESGWWFVSTAEEQGWVPATCLEGQ [E13V], the abundance fitness was -0.065 ± 0.071.

Take EQYVVVANYQKQWSSEISLSVGQVVDIIEKNESGWWFVSTAEEQGWVPATCLEGQ [E13W]: the abundance fitness is -0.467 ± 0.17.

On to EQYVVVANYQKQKSSEISLSVGQVVDIIEKNESGWWFVSTAEEQGWVPATCLEGQ [E13K], for which the abundance fitness is -0.015 ± 0.15.

As for EQYVVVANYQKQTSSEISLSVGQVVDIIEKNESGWWFVSTAEEQGWVPATCLEGQ [E13T], the abundance fitness is -0.104 ± 0.1.

As for EQYVVVANYQKQRSSEISLSVGQVVDIIEKNESGWWFVSTAEEQGWVPATCLEGQ [E13R], the abundance fitness was -0.182 ± 0.081.

For the variant EQYVVVANYQKQNSSEISLSVGQVVDIIEKNESGWWFVSTAEEQGWVPATCLEGQ [E13N], the abundance fitness was -0.046 ± 0.16.

On to EQYVVVANYQKQFSSEISLSVGQVVDIIEKNESGWWFVSTAEEQGWVPATCLEGQ [E13F], for which the abundance fitness is -0.229 ± 0.13.

In the case of EQYVVVANYQKQLSSEISLSVGQVVDIIEKNESGWWFVSTAEEQGWVPATCLEGQ [E13L], the abundance fitness was -0.178 ± 0.071.

Regarding EQYVVVANYQKQDSSEISLSVGQVVDIIEKNESGWWFVSTAEEQGWVPATCLEGQ [E13D], the abundance fitness was -0.111 ± 0.14.

Take EQYVVVANYQKNESSEISLSVGQVVDIIEKNESGWWFVSTAEEQGWVPATCLEGQ [Q12N]: the abundance fitness is -0.183 ± 0.14.

On to EQYVVVANYQKKESSEISLSVGQVVDIIEKNESGWWFVSTAEEQGWVPATCLEGQ [Q12K], for which the abundance fitness is 0.013 ± 0.094.

Regarding EQYVVVANYQKSESSEISLSVGQVVDIIEKNESGWWFVSTAEEQGWVPATCLEGQ [Q12S], the abundance fitness is -0.038 ± 0.073.

For the variant EQYVVVANYQKMESSEISLSVGQVVDIIEKNESGWWFVSTAEEQGWVPATCLEGQ [Q12M], the abundance fitness is -0.182 ± 0.14.

EQYVVVANYQKCESSEISLSVGQVVDIIEKNESGWWFVSTAEEQGWVPATCLEGQ [Q12C]: the abundance fitness is -0.228 ± 0.1.

Regarding EQYVVVANYQKYESSEISLSVGQVVDIIEKNESGWWFVSTAEEQGWVPATCLEGQ [Q12Y], the abundance fitness was -0.313 ± 0.3.

EQYVVVANYQKGESSEISLSVGQVVDIIEKNESGWWFVSTAEEQGWVPATCLEGQ [Q12G]: the abundance fitness was -0.14 ± 0.074.

Consider EQYVVVANYQKHESSEISLSVGQVVDIIEKNESGWWFVSTAEEQGWVPATCLEGQ [Q12H], for which the abundance fitness is -0.114 ± 0.19.

On to EQYVVVANYQKIESSEISLSVGQVVDIIEKNESGWWFVSTAEEQGWVPATCLEGQ [Q12I], for which the abundance fitness was -0.19 ± 0.14.

Take EQYVVVANYQKEESSEISLSVGQVVDIIEKNESGWWFVSTAEEQGWVPATCLEGQ [Q12E]: the abundance fitness is -0.195 ± 0.14.

Regarding EQYVVVANYQKDESSEISLSVGQVVDIIEKNESGWWFVSTAEEQGWVPATCLEGQ [Q12D], the abundance fitness is -0.241 ± 0.15.

Consider EQYVVVANYQKPESSEISLSVGQVVDIIEKNESGWWFVSTAEEQGWVPATCLEGQ [Q12P], for which the abundance fitness was -0.276 ± 0.087.

Turning to EQYVVVANYQKFESSEISLSVGQVVDIIEKNESGWWFVSTAEEQGWVPATCLEGQ [Q12F], the abundance fitness is 0.001 ± 0.16.

Consider EQYVVVANYQKVESSEISLSVGQVVDIIEKNESGWWFVSTAEEQGWVPATCLEGQ [Q12V], for which the abundance fitness was found to be 0.02 ± 0.08.

For EQYVVVANYQKRESSEISLSVGQVVDIIEKNESGWWFVSTAEEQGWVPATCLEGQ [Q12R], the abundance fitness is -0.066 ± 0.068.

Turning to EQYVVVANYKKQESSEISLSVGQVVDIIEKNESGWWFVSTAEEQGWVPATCLEGQ [Q10K], the abundance fitness was -0.192 ± 0.15.

For EQYVVVANYWKQESSEISLSVGQVVDIIEKNESGWWFVSTAEEQGWVPATCLEGQ [Q10W], the abundance fitness is -0.334 ± 0.14.

Regarding EQYVVVANYEKQESSEISLSVGQVVDIIEKNESGWWFVSTAEEQGWVPATCLEGQ [Q10E], the abundance fitness stood at 0.125 ± 0.11.

For the variant EQYVVVANYGKQESSEISLSVGQVVDIIEKNESGWWFVSTAEEQGWVPATCLEGQ [Q10G], the abundance fitness was -0.322 ± 0.077.

Regarding EQYVVVANYTKQESSEISLSVGQVVDIIEKNESGWWFVSTAEEQGWVPATCLEGQ [Q10T], the abundance fitness was -0.058 ± 0.13.

For EQYVVVANYDKQESSEISLSVGQVVDIIEKNESGWWFVSTAEEQGWVPATCLEGQ [Q10D], the abundance fitness is -0.266 ± 0.18.

EQYVVVANYCKQESSEISLSVGQVVDIIEKNESGWWFVSTAEEQGWVPATCLEGQ [Q10C]: the abundance fitness was -0.135 ± 0.17.

With EQYVVVANYFKQESSEISLSVGQVVDIIEKNESGWWFVSTAEEQGWVPATCLEGQ [Q10F], the abundance fitness is -0.257 ± 0.27.

Consider EQYVVVANYYKQESSEISLSVGQVVDIIEKNESGWWFVSTAEEQGWVPATCLEGQ [Q10Y], for which the abundance fitness was -0.333 ± 0.23.

In the case of EQYVVVANYLKQESSEISLSVGQVVDIIEKNESGWWFVSTAEEQGWVPATCLEGQ [Q10L], the abundance fitness was -0.044 ± 0.088.

In the case of EQYVVVANYMKQESSEISLSVGQVVDIIEKNESGWWFVSTAEEQGWVPATCLEGQ [Q10M], the abundance fitness was -0.476 ± 0.14.

As for EQYVVVANYHKQESSEISLSVGQVVDIIEKNESGWWFVSTAEEQGWVPATCLEGQ [Q10H], the abundance fitness is -0.145 ± 0.21.

For EQYVVVANYRKQESSEISLSVGQVVDIIEKNESGWWFVSTAEEQGWVPATCLEGQ [Q10R], the abundance fitness is -0.071 ± 0.096.

EQYVVVANYIKQESSEISLSVGQVVDIIEKNESGWWFVSTAEEQGWVPATCLEGQ [Q10I]: the abundance fitness was -0.128 ± 0.17.

Take EQYVVVANYAKQESSEISLSVGQVVDIIEKNESGWWFVSTAEEQGWVPATCLEGQ [Q10A]: the abundance fitness was 0.003 ± 0.087.
